Test results from publication PMC4202109 (The FASEB Journal, 2014).

Molecular target: Fluorescently labeled ATS (intracellular segment) of PfEMP1 variant PF08_0141, full-length segment (P. falciparum, 5-FAM label)
Assay: fluorescence polarisation

B1: PFI1780w PHIST domain (as used in fluorescence polarization) (domain or fragment)
chain: SLSDEINKCDMKKYTAEEINEMINSSNEFINRNDMNIIFSYVHESEREKFKKVEENIFKFIQSIVETYKIPDEYKMRKFKFAHFEMQGYALKQEKFLLEYAFLSLNGKLCERKKFKEVLEYVKREWIEFRKSMFDVWKEKLASEFREHGEMLNQKRKLKQHEL
B1 was tested, and the “fold lower affinity than PFE1605w” value was about 30 fold.
